Tests used:
[1] = molecular target: H77 E1E2突然変異型L413A (Hepatitis C virus genotype 1a, strain H77) (UniProt P27958); assay: GNA capture EIA, mutant E1E2 from HEK293T cells
[2] = molecular target: H77 E1E2突然変異型N415A (Hepatitis C virus genotype 1a, strain H77) (UniProt P27958); assay: GNA capture EIA, mutant E1E2 from HEK293T cells
[3] = molecular target: H77 E1E2突然変異型Q412A (Hepatitis C virus genotype 1a, strain H77) (UniProt P27958); assay: GNA capture EIA, mutant E1E2 from HEK293T cells
[4] = molecular target: H77 E1E2突然変異型W420A (Hepatitis C virus genotype 1a, strain H77) (UniProt P27958); assay: GNA capture EIA, mutant E1E2 from HEK293T cells
[5] = molecular target: H77 E1E2突然変異型G418A (Hepatitis C virus genotype 1a, strain H77) (UniProt P27958); assay: GNA capture EIA, mutant E1E2 from HEK293T cells
[6] = molecular target: 412〜423分枝ペプチド (Hepatitis C virus); assay: antibody titration on the 412-423 branched peptide (Figure 10)
[7] = molecular target: 遺伝子型5の単離物のE1E2(MAb AP33反応性); assay: cell-based or functional assay
遺伝子型3aの単離物のE1E2 = assay: cell-based or functional assay

## モノクローナル抗体AP33 (antibody)
[1]
  decrease of binding compared with wild type: > 75%
[2]
  decrease of binding compared with wild type: > 75%
[3]
  increase of binding compared with wild type H77: 50%
[4]
  decrease of binding compared with wild type: > 75%
[5]
  decrease of binding compared with wild type: > 75%
[6]
  concentration for 50% binding, how much lower than that of MAb 3/11: > 10
[7]
  IC 50(HCV pp 中和): 0.6 µg/mL
遺伝子型3aの単離物のE1E2
  IC 50(HCV pp 中和): 22 µg/mL

Source: patent JP2013230152A
